According to PMC6122994 (The Journal of Cell Biology, 2018):

Molecular target: the molecule itself
Experiment: SEC

B1: MBP-Opi1 (full-length) (natural protein, S. cerevisiae, UniProt P21957 1-404, looked up)
chain: MSENQRLGLSEEEVEAAEVLGVLKQSCRQKSQPSEDVSQADKMPASESSTTPLNILDRVSNKIISNVVTFYDEINTNKRPLKSIGRLLDDDDDEHDDYDYNDDEFFTNKRQKLSRAIAKGKDNLKEYKLNMSIESKKRLVTCLHLLKLANKQLSDKISCLQDLVEKEQVHPLHKQDGNARTTTGAGEDETSSDEDDDDEEFFDASEQVNASEQSIVVKMEVVGTVKKVYSLISKFTANSLPEPARSQVRESLLNLPTNWFDSVHSTSLPHHASFHYANCEEQKVEQQQQQQQQQQQQQLLQQQLLQQQQQKRNKDGDDSASPSSSVTANGKVLILAKESLEMVRNVMGVVDSTLGKAEEWVKQKQEVKEMIRERFLQQQQQYRQQQQKDGNYVKPSQDNVDSKD
binding result: binds
